From US20220211857A1, “POLYPEPTIDE DERIVATIVE AND PREPARATION METHOD THEREOF” (NINGBO KUNPENG BIOTECH CO., LTD., priority 2019, published 2022)
Where a SMILES comes first, the peptide text is derived from it. The star is where a group is joined. X1 = O=C(O)CCCCCCCCCCCCCCC(=O)NC(CCC(=O)NCCOCCOCC(=O)NCCOCCOCC(=O)NCCn1cc(CCOC(=O)*)nn1)C(=O)O; X6 = O=C(O)CCCCCCCCCCCCCCC(=O)NC(CCC(=O)NCCOCCOCC(=O)NCCOCCOCCn1cc(CCOC(=O)*)nn1)C(=O)O; X4 = O=C(O)CCCCCCCCCCCCCCC(=O)NC(CCC(=O)NCCOCCOCCn1cc(CCOC(=O)*)nn1)C(=O)O

Assays:
[1] = general background statement; cited from earlier work
[2] = subcutaneous administration or intramuscular injection, background statement; cited from earlier work
[3] = Pharmacokinetics studies of PTH-1 derivatives in rats (single subcutaneous injection, LC-MS/MS, NCA); assay type: in vivo; conditions: rat; for half-lives (in words): experiment of Example 10 repeated in the same way
Protocol: PTH-1 and L6-GFA16-PTH-1 were injected subcutaneously with a single administration of 8.6 μg/kg, respectively. Animals in each group were collected blood at 0 min, 5 min, 15 min, 30 min, 1 h, 2 h, and 4 h after administration. […] Exposure time of drugs in vivo was prolonged and exposure doses were increased.

GLP-1: glucose-dependent incretin polypeptide hormone; reference substance of Table 2
biological half-life in vivo [1]: 20 minutes

PTH: parathyroid hormone; PTH-1 is the reference substance of Table 3 (SVSEIQLMHNLGRHLNSMERVEWLRKRLQDVHNF; Amino Acid Sequence of PTH)
half-life [2]: about 12 hours

CC[C@H](C)[C@H](NC(=O)[C@H](CCC(=O)O)NC(=O)[C@H](CO)NC(=O)[C@@H](NC(=O)[C@@H](N)CO)C(C)C)C(=O)N[C@@H](CCC(N)=O)C(=O)N[C@@H](CC(C)C)C(=O)N[C@@H](CCSC)C(=O)N[C@@H](Cc1c[nH]cn1)C(=O)N[C@@H](CC(N)=O)C(=O)N[C@@H](CC(C)C)C(=O)NCC(=O)N[C@@H](CCCNC(=N)N)C(=O)N[C@@H](Cc1c[nH]cn1)C(=O)N[C@@H](CC(C)C)C(=O)N[C@@H](CC(N)=O)C(=O)N[C@@H](CO)C(=O)N[C@@H](CCSC)C(=O)N[C@@H](CCC(=O)O)C(=O)N[C@@H](CCCNC(=N)N)C(=O)N[C@H](C(=O)N[C@@H](CCC(=O)O)C(=O)N[C@@H](Cc1c[nH]c2ccccc12)C(=O)N[C@@H](CC(C)C)C(=O)N[C@@H](CCCNC(=N)N)C(=O)N[C@@H](CCCCNC(=O)OCCc1cn(CCOCCOCCNC(=O)CCC(NC(=O)CCCCCCCCCCCCCCC(=O)O)C(=O)O)nn1)C(=O)N[C@@H](CCCNC(=N)N)C(=O)N[C@@H](CC(C)C)C(=O)N[C@@H](CCC(N)=O)C(=O)N[C@@H](CC(=O)O)C(=O)N[C@H](C(=O)N[C@@H](Cc1c[nH]cn1)C(=O)N[C@@H](CC(N)=O)C(=O)N[C@@H](Cc1ccccc1)C(=O)O)C(C)C)C(C)C (some centres unmarked) [L2-GFA16-PTH] (H-SVSEIQLMHNLGRHLNSMERVEWLRK(X4)RLQDVHNF-OH)
half-lives (in words) [3]: significantly prolonged

CC[C@H](C)[C@H](NC(=O)[C@H](CCC(=O)O)NC(=O)[C@H](CO)NC(=O)[C@@H](NC(=O)[C@@H](N)CO)C(C)C)C(=O)N[C@@H](CCC(N)=O)C(=O)N[C@@H](CC(C)C)C(=O)N[C@@H](CCSC)C(=O)N[C@@H](Cc1c[nH]cn1)C(=O)N[C@@H](CC(N)=O)C(=O)N[C@@H](CC(C)C)C(=O)NCC(=O)N[C@@H](CCCNC(=N)N)C(=O)N[C@@H](Cc1c[nH]cn1)C(=O)N[C@@H](CC(C)C)C(=O)N[C@@H](CC(N)=O)C(=O)N[C@@H](CO)C(=O)N[C@@H](CCSC)C(=O)N[C@@H](CCC(=O)O)C(=O)N[C@@H](CCCNC(=N)N)C(=O)N[C@H](C(=O)N[C@@H](CCC(=O)O)C(=O)N[C@@H](Cc1c[nH]c2ccccc12)C(=O)N[C@@H](CC(C)C)C(=O)N[C@@H](CCCNC(=N)N)C(=O)N[C@@H](CCCCNC(=O)OCCc1cn(CCOCCOCCNC(=O)COCCOCCNC(=O)CCC(NC(=O)CCCCCCCCCCCCCCC(=O)O)C(=O)O)nn1)C(=O)N[C@@H](CCCNC(=N)N)C(=O)N[C@@H](CC(C)C)C(=O)N[C@@H](CCC(N)=O)C(=O)N[C@@H](CC(=O)O)C(=O)N[C@H](C(=O)N[C@@H](Cc1c[nH]cn1)C(=O)N[C@@H](CC(N)=O)C(=O)N[C@@H](Cc1ccccc1)C(=O)O)C(C)C)C(C)C (some centres unmarked) [L5-GFA16-PTH] (H-SVSEIQLMHNLGRHLNSMERVEWLRK(X6)RLQDVHNF-OH)
half-lives (in words) [3]: significantly prolonged

CC[C@H](C)[C@H](NC(=O)[C@H](CCC(=O)O)NC(=O)[C@H](CO)NC(=O)[C@@H](NC(=O)[C@@H](N)CO)C(C)C)C(=O)N[C@@H](CCC(N)=O)C(=O)N[C@@H](CC(C)C)C(=O)N[C@@H](CCSC)C(=O)N[C@@H](Cc1c[nH]cn1)C(=O)N[C@@H](CC(N)=O)C(=O)N[C@@H](CC(C)C)C(=O)NCC(=O)N[C@@H](CCCNC(=N)N)C(=O)N[C@@H](Cc1c[nH]cn1)C(=O)N[C@@H](CC(C)C)C(=O)N[C@@H](CC(N)=O)C(=O)N[C@@H](CO)C(=O)N[C@@H](CCSC)C(=O)N[C@@H](CCC(=O)O)C(=O)N[C@@H](CCCNC(=N)N)C(=O)N[C@H](C(=O)N[C@@H](CCC(=O)O)C(=O)N[C@@H](Cc1c[nH]c2ccccc12)C(=O)N[C@@H](CC(C)C)C(=O)N[C@@H](CCCNC(=N)N)C(=O)N[C@@H](CCCCNC(=O)OCCc1cn(CCNC(=O)COCCOCCNC(=O)COCCOCCNC(=O)CCC(NC(=O)CCCCCCCCCCCCCCC(=O)O)C(=O)O)nn1)C(=O)N[C@@H](CCCNC(=N)N)C(=O)N[C@@H](CC(C)C)C(=O)N[C@@H](CCC(N)=O)C(=O)N[C@@H](CC(=O)O)C(=O)N[C@H](C(=O)N[C@@H](Cc1c[nH]cn1)C(=O)N[C@@H](CC(N)=O)C(=O)N[C@@H](Cc1ccccc1)C(=O)O)C(C)C)C(C)C (some centres unmarked) [L6-GFA16-PTH] (H-SVSEIQLMHNLGRHLNSMERVEWLRK(X1)RLQDVHNF-OH)
Tmax ([3]; in vivo, sc, s.c. 8.6 μg/kg, summary of Table 3, read-out: peak times): ~1.6 h
